From a protein production outcome set (Wang et al. 2014)

Assay: label from the status in PepcDB records

| Sequence | protein production |
| --- | --- |
| MGESVRTLSYGSWPSPVDAALAAAHDGRPDDVGFVGDEVWWTAPRPTEGGRRTLVRRHADGTEEPVLPAPWNVRSRVIEYGGRPWGAATTDSGPLVVFVNFADQRLYAFTPGGGEPRPLTPLSAVGGGLRWIEPDPRPERGEVWCVLEEFTGEGPTDVRRVPVAVPLDGSAADDRGAVRELAPERHRFVTGPRLSPDGRRAAWLAWDHPRMPWDGTELIVAEVGPEGTFQAARTVAGGPEESIAQADWAPDGTLLYASDRTGWWNLYRDGRPLCPREEEFGGPLWKLGQRWFAPLDSGLIAVLHGRGAAVLGILDPETGEVVDAAGPWTEFAPALAAHGERVAAVGASPRSGYEVVELDARTGRARVIGAPHEDATDPEFYPRPRIRTFTGPGGREIHAHVYPPHHPGCRAPDGELPPYVIWAHGGPTSRSPLVLDLEIAYFTSRGIGVAEVNYGGSSGHGREYRNRLREQWGVVDVEDCAAVALALADEGTADRARLAVRGGSAGGWTSAASLATTDVYACGTISYPILDLTGWGTGETHDFESQYLESLIGPYAEVPDRYTDRSPAEHAERVTAPFLLLQGLDDVICPPVQCERFLDRMAGRGVPHAYLAFEGEGHGFRRAETMVRALEAELSLYAQVFGLTPPGVPVLELTR | failed |
| MESPGGSAPLLGLELCAAARDSAAMAGPGAPCDPCAPAAVWKRHIVRQLRHRDRTQKALFLELVPAYNHLLEKAELLAKFSEKLKSEPKDAISTRHEDWREEVSGTGPDQVSSPASLRVKWQQEKKGLQLVCGEMAYQVVKKSAALDTLQSQLEERQDRLEALQACVVQLQEARAQQSRQLEERQAENAAQREAYETLLQQAVHQEAALRRLQEEARDLLEQLVQRKARAAAERNLRNERRERANQALVSQELKKAAKRTVSISEIPNTLEDGTKEETVALAPAALPEFSESETCEKWKRPFRSASATSLTLSRCVDVVKGLLDFKKRRGHSVGGAPEQRYQSIPVCVSAQIPSQAQDVLDAHLSEVNAVCFGPNSSLLATGGADRLIHLWNVVGGRLEANQTLEGAGGSITSVDFDPSGSQVLAATYNQAAQLWKVGETQSKETLSGHKDKVTAAKFKLTRHQAVTGSRDRTVKEWDLGRAYCSRTINVLSYCNDVVCGDHIIISGHNDQKIRFWDSRGPHCIQVIPVQGRVTSLHLSYDQLHLLSCSRDNTLKVIDLRISNIRQVFRADGFKCSSDWTKAVFSPDRSYALAGSSNGDLYIWDVNTGKLETSLQGPHCTAVNAVAWCFSGNHVVSVDQGRKVVLWH | failed |
| PDRAWINRCRTLSEHTDKAVRAQLAAHPKATGLHVAAAVMDALTDGDQLLLGASNPVRDAALVSYPAPKIRVLSNRGVAGIDGTVSAAVGAALAYEEGRTVALLGDLTFLHDASGLLIGSGEPRPRDLTIVVANDDGGGIFELLEQGDPQYAGVFERVFGTPHGMDLAALCAAYRVEHHLVGLGELSTRLSAPEAPGDRGIRVLEVTTERSGLRELHAAVRAQL | failed |
| MKYNYTVLLSAFTMSVLYSVIYIHSFIIAALITMAFYFLFPYLIFALPLQIMMNKKPKRFSPLYLLYYLAAAFIANAIIFGMLQPSGQSLFQNTAFYLFAVLTALIYWIWDSVLLQKKEA | failed |
| MAVRKLGVLTSGGDCPGLNAVIRAIARHAVGNYGWELWGIAYATQGLLKRQAIALSPHHFDRQSLDPLLCSGGTILGSINRGDTLAHQAEILAGYQELGLDALIGIGGDGSLAILRQLAEAGRWQFIGIPKTIDNDVALTERAIGFDTAIHTVAEALLSLGSTAASHDRIMIAEVMGRQSGHLALQGGIAGGADVILLPEIPYRLLELCHYLQQLRDRWQRRYAVIAIAEGTHHPPEVTQGPGSLGEQLVQAITAQDPTLDARVTVLGHVQRGGNPVASDRLLATQMGYAAVERLAAGASGEMMAWQGGRVVSVPLEAVCLQSPTLVDPHSPLVDTAAGLGIFLGDRSLTPWRGSACPTH | failed |
| MGHHKAMPYADVAAFIIELRKREAVAATALEFTILTAARSGETLGAKWHEIDWKDKIWTVPAERMKAAREHRVPLSSRTITILKKLAEFGSDENSFVFPGQKPGKPLSVMAMDMVLRRMEVDVTVHGFRSSFRDWCGEVSNFPRDVAEAALAHVVGDKTERAYRRGDALEKRRKLMAAWEKFCIAEIKKNPLEHHHHHH | failed |
| MVSFVFNGGALWSVLLLALRKRRFNVDPAMMAMTIAIYAYCAANLVASIVNSAIARDALHLIPLVTFLFFPISYSTWSITQKTTLVRIIVLSSMAACFVALLLAVFQQHWLGMRAEGGAGNAIVFAEVLCLAVLVCVAGALSDIERHRIALLCAALGGTIAIIYSGTRIVWLALLIAGIAVLLINQHRLKGRNAIRLLVLLLAAGAVIAAVGFQTISGRVDFLRSDLDALAVNGDHTTAIGLRLAVWDIGLKAFREMPLFGHGVGATQALIKQGFHDQFGMDAGFNHFHNGFLTALVQAGLLGAVTLAAMFVVAARNAAVVLRNSTDPIERFGATMIVIMVITYLTSGMTGILIGHDILDSVLMVFLVSGTYLASGRQAPLPQDQALPPETEERAPAPVAEDALLPGMENRALRLTQ | failed |
| MHFNLPTYLTLLRIVLIPVLTVAFYLPWSGAHVVSGVIFAIAAITDWLDGYLARRMGLATRFGAFLDPVADKLMVAVALVLIVQAEPRPLIALASAIIIGREITIASLREWMAEIGQRKRVEVSALGKWKTTFQMLAITLLLLGLDIPHGGVKTTGELLLVVSATLTLWSMIVYLQAAMPVFKAGAEAE | not failed |
| MTLVSVVLPVYQGAPWIRGALDCLAAQTHRPLEILVVDDASSDGTPAVVEDWRARHPDLSVRLIVRPENGGPGVARNDALALARGAYVAFLDADDRCVPWRLARQLARLEAEPGLGSVGAWYDMVDADGTPVAARRLSVTAGEMAWAALIHPPFLLSTLMTRRALCRPGIFAPRHQGEDAPAQRRLLWQAPAAMIEEVLVTYRTDPHRPQDPRMGVAMAEDLAPLTGPLSAAEAWALHDALLAFPNRVTPAAIAAVSGLFTLLGVFRGLRPAWMTRPEYNRLFEGYLDLAAPFLAAHGESLLAPPSPQAPRVAPWMGPWEAEWRAGEARSDRPRPKEIFPPVGGDSPSKLSG | failed |
| MRTIAFALALLATPVAAELEAARDLMDAGRFDEAYAALWPAARSGNAEAEELIGVIYAMGLGRPRDDQRAFEWYLRAAMKGHPGAQSGVGWYYEVGRGLPAPDLMRAYMWYTLSAIGGDPDAAISLEEVAKKMTAEEINKAHVLVADYKVWMYPFR | failed |
| MPAKPIDLGPLHFAKRGDAVAYLNDMLHRYDVGDRVGANDTVILRAALEHHPDAEAKKGCGITHFNVRTADFGTKCFWLNRTDGTTEKFSHRACIYGT | failed |
| QRSYERDFPHHDRICIVKTHGTRQSQEGDKPEELDFSQVSGGVAPAIQEEIPGVELATRTTLYGTSKMILEDNKTYETKTLLAEPAFLDMFGVELIAGVRDSALRDNMTCLISESLARKMGGDVLGKRLRPAESKSDRAITIGGVFEDLPHNSSIQADMLLPITWMPAESLNNWIGNDRYIAYVRLRPGVSPESLDEALLEMQKRHQDMEVFRKAGVELHYSLTPFNRLRLEDPTLVNMLRIQQ | not failed |
| MLLTIFSILAILCLVLYFYCMVILHLKNKGVYHPMTHAVSDYGIGQNKSYFQLAGLANTFRNLFLILSLIFWKYSFSFKKEAVLLLILAIIGYAGVALFPTDIEGSKRTVKGIIHLLFAILQFTALAIFIFNVTEVLKPLNATLFLIASYIKIVVEVGLYGLVIALFLPFVKKYFGLFERLFLYSSNLYILLLCVMMIRY | failed |
| MARPQPCGPPHARCGSPSLPERPLQVKVVGLFSCPNFQIAKSAAENLKNNHPSKFEDPILVPLQEFAWHQYLQEKKRELKNETWEYSSSVISFVNGQFLGDALDLQKWAHEVWDIVDIKPSALYDALTEDFSAKFLRDTKHDFVFLDICIDSSPIGRLIFELYCDVCPKTCKNFQVLCTGKAGFSQRGIRLHYKNSIFHRIVQNGWIQGGDIVYGKGDNGESIYGPTFEDENFSVPHNKRGVLGMANKGRHSNGSQFYITLQATPYLDRKFVAFGQLIEGTEVLKQLELVPTQNERPIHMCRITDSGDPYA | failed |
| MEKIIVVKYRDVKLKSPILIGGLPGIGNVGKIAADYIVEKLNMVKIYDIFSEYLPPQVFINDDSEIHLVRNSIYYKKMRGKHDLLVLGGDFQGTTQEAQYELSYKMLELAKDMNVSEVYTLGGYSVGKIVERPRVLGAVTDKKLIPELEKNGVIFPKGEPGGGIVGSAGLILGLGMEIFKINGACLMGETSGYFADPKSAMEVLNVLQKQIGIKIDMSDIETRSKQIEQITGKMQEEFQNKQGKEDLGYFG | failed |
| MFPQADEPERDTLPGQEEDPLPTGQEQPSITPIAGTEAQYIDIAEWYDSDSILYITDEGENSLVYIYNLLTGEKKSLFSSDDAVIKVTANSTHSQFAIQTVTQAGDAPVSIIDSQGELLMKLEDFGEDFSIFWSPYEEDKLIAVAYLPDWEQDLYLIDTSDKQVEMLDLDQSFVQWLDERTIVYLDWNGDSEGYYAPLYTFDLETEEVVLLHEEAIATLGFGDHVTLIIERPEQGAEVTTYQFWNGSEQLAEWSVPILRTYSEQWWIPFYDFDLNKRLFYAYKPNRTGDYFEYDGGFSFIAFDVDHGEETVLFESDEHVPFRLSPTGQRALFGPRLETVMDLPTGESNSLIELEHHHHHH | failed |
| TERVNLWMHDHGVRRPFRPVVADGYKKTINKNHSVNGSAPNFVHACDAAHLLRTVNAARAEGITQFALVHDSFGSLPSHAARFRQIIREEFVRMYEEHDVLTEVLEQAKCDLDEHNDKLSALVDMRADLTGKLNIKEVLNAEYAFAYP | failed |
| MDRRRFIKGSMAMAAVCGTSGIASLFSQAAFAADSDIADGQTQRFDFSILQSMAHDLAQTAWRGAPRPLPDTLATMTPQAYNSIQYDAEKSLWHNVENRQLDAQFFHMGMGFRRRVRMFSVDPATHLAREIHFRPELFKYNDAGVDTKQLEGQSDLGFAGFRVFKAPELARRDVVSFLGASYFRAVDDTYQYGLSARGLAIDTYTDSKEEFPDFTAFWFDTVKPGATTFTVYALLDSASITGAYKFTIHCEKSQVIMDVENHLYARKDIKQLGIAPMTSMFSCGTNERRMCDTIHPQIHDSDRLSMWRGNGEWICRPLNNPQKLQFNAYTDNNPKGFGLLQLDRDFSHYQDIMGWYNKRPSLWVEPRNKWGKGTIGLMEIPTTGETLDNIVCFWQPEKAVKAGDEFAFQYRLYWSAQPPVHCPLARVMATRTGMGGFPEGWAPGEHYPEKWARRFAVDFVGGDLKAAAPKGIEPVITLSSGEAKQIEILYIEPIDGYRIQFDWYPTSDSTDPVDMRMYLRCQGDAISETWLYQYFPPAPDKRQYVDDRVMS | failed |
| MEAPKMALSDVKCRNARPASKLVKLSDGGGLQLWVQPTGSRLWRLAYRFGGKQKLLALGSYPLISLAEAREARDTAKRLLLRGIDPAQERKSQKASAEDTFRSIAEDYVDKLKKEGRADRTITKVKWLLDFAYPTFGDKSVREIDPATILAALRSVEVRGRYESARRMRSTIGSVFRYAIATARADVDPTIALRGALVGPTVTPRAAVTDPKALGGLLRAINAFDGQPTTRAALKLMALLFPRPGELRAAGWDEFDFESSVWSIPEGRMKMRRPHRVPLSTQAVSVLTSLREISGGGSLLFPSVRSGSRPISDNTLNAALRRMGYGKEEATAHGFRATASTLLNECGKWHPDAVERQLAHIENNDVRRAYARAEHWEERVRMMQWWADYLDELESKNSRVVSIGGREASLLSIHPREGLVWKPTATVRQTTSRTSNLRKSH | failed |
| MAVYHLLLSSPPSLLLLPPSPRRPNLTLIRRIPAHPRLGNSTSLLSSSSPVIRKILVRSTLREDQPIASDSESSPTLLIGEDSAAFELGKQKLVSWVYFGVVLGVVLFILNVVWIDNSTGFGKSFIDAVSNISGSPEVAMLMLILIFAIVHSGLASLRDIGEKLIGERAFRVLFAGISLPLAMSTIVYFINHRYDGSQLWQLQGVPGVHEAIWVANFVSFFFLYPSTFNLLEVAAVDKPKMHLWETGIMRITRHPQMVGQIVWCLAHTLWIGNTVAASASLGLIAHHLFGAWNGDRRLAKRYGEDFESIKKRTSVIPFAAIFEGRQVLPEDYYKEFVRLPYLAITALTVGAYFAHPLMQGASFRLHW | failed |
| EIEICPKVTQSIHIEKSDTAADTYGFSLSSVEEDGIRRLYVNSVKETGLASKKGLKAGDEILEINNRAADALNSSMLKDFLSQPSLGLLVRTYPELEEGVE | not failed |
